Reference: patent US20250223627A1, “FLUOROGENIC SUBSTRATES FOR AMINOPEPTIDASE DETECTION IN BIOFLUIDS” (GLYMPSE BIO, INC., priority 2022, published 2025)

Assays:
NASH-related proteases = test: Probe cleavage in mouse plasma, NASH vs healthy (RFU per minute); format: biochemical; settings: for disease contrast (NASH vs healthy): mouse plasma; for ability to distinguish (differentiate) between NASH and healthy samples: activity as RFU per minute in 1% mouse plasma, NASH (CDAHFD) vs healthy (CD)
Method: All animals were used in accordance with animal care guidelines. Plasma was obtained from these blood samples by centrifugation at 3,500 RPM for 20 min at 4° C. The plasma was stored at −80° C. until it was needed for experimental purposes.
Samples were mixed with protease substrates and quenchers/reporters in 96-well plates. The 96-well plates were read on a Biotech Synergy H1, using 465,535 excitation/emission settings.
The probes of the present application were able to measure the activity of NASH-related proteases as expressed in Relative Fluorescent Unit (RFU) per minute in the two mouse populations. Probes measuring cathepsin activity were 3-fold higher in protease cleavage kinetics in mice with NASH compared to healthy mice.
Using the method of the above example, PEGylated probes were used to measure the activity of NASH-related proteases, as expressed in RFU per minute in 1% mouse plasma samples.

DPP4 = DPP4 (Homo sapiens, UniProt P27487); test: Recombinant protease panel, probe cleavage: dpp4; format: biochemical; settings: expressed in RFU per minute
Sequence of DPP4 (P27487 whole entry, species assumed): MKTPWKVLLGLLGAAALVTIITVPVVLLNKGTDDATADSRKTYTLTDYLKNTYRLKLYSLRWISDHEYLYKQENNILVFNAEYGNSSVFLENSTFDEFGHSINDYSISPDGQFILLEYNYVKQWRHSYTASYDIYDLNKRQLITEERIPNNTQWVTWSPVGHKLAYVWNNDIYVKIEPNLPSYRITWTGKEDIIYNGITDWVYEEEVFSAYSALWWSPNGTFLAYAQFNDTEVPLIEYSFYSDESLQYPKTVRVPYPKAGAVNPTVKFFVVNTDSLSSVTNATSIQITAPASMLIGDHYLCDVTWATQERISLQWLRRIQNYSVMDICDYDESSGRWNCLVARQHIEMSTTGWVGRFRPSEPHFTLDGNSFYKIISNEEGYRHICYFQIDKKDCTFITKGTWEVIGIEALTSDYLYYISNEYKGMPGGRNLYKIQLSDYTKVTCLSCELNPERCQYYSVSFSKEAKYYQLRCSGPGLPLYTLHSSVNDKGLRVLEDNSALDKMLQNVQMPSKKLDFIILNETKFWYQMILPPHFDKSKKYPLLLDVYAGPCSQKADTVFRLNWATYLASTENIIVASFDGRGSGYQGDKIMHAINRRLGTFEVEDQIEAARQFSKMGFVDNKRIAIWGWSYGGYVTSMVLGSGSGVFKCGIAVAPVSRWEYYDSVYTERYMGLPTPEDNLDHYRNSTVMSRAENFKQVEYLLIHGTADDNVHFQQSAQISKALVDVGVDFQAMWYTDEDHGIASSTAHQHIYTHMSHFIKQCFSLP
Method: Substrate plates were thawed and spun down for 5 minutes to ensure the substrates were at the bottom of the wells. Proteases for each substrate plate were prepared by adding 1 protease per plate. Proteases were then diluted to 15 nM in 2 mL of specified protease buffer (see Table 5). Assay buffer was added to control wells while […] active enzyme in assay buffer was added to each sample well. Plates were spun down and then read immediately after centrifugation.

[1] = tested on: most other probes (FIG. 16)
[2] = tested on: Probe #766, K(Acc)(Hyp)G(PEG8)K(Dnp)k
[3] = tested on: Probe #762, K(Acc)(Pro-4-Obzl)G(PEG8)K(Dnp)k
[4] = tested on: Probe #768, K(Acc)(Sar)G(PEG8)K(Dnp)k

Substance: AK(Acc)G-PEG8-K(Dnp)-k [Probe #680]
- disease contrast (NASH vs healthy) (NASH-related proteases): Lys-Ala motif of Probe #678 (FIG. 13A) displays stronger disease contrast than the Ala-Lys motif of Probe #680

Substance: K(Acc)AG-PEG8-K(Dnp)-k [Probe #678]
- DPPIV (DPP4) protease activity on the probe (cleavage) (DPP4): needed for measuring DPPIV activity
- ability to distinguish (differentiate) between NASH and healthy samples (NASH-related proteases): ability to distinguish between NASH and healthy samples
- ability to distinguish (differentiate) between NASH and healthy samples (NASH-related proteases; listed as probe 678): able to differentiate between NASH and healthy samples
- disease contrast (NASH vs healthy) (NASH-related proteases): stronger disease contrast than the Ala-Lys motif of Probe #680

Substance: aminopeptidase n/CD13
- hydrolysis of fluorogenic probe by protease [1]: most other probes are susceptible to cleavage
- hydrolysis of fluorogenic probe by protease [2]: evade hydrolysis from Aminopeptidase N
- hydrolysis of fluorogenic probe by protease [3]: evade hydrolysis from Aminopeptidase N
- hydrolysis of fluorogenic probe by protease [4]: evade hydrolysis from Aminopeptidase N

Substance: dipeptidyl-peptidase 4 (DPP4 or DPPIV)
- cleavage of fluorogenic substrate (fluorescence over time) (a substrate (FIG. 19C)): a substrate is rapidly cleaved by DPP4 (square markers) but remains intact in buffer alone with no protease present
- cleavage of fluorogenic probe by protease panel [2]: selective for dipeptidyl peptidases with strong preferences for DPP4
- cleavage of fluorogenic probe by protease panel [4]: selective for dipeptidyl peptidases with strong preferences for DPP4

Substance: dpp2/7
- cleavage of fluorogenic probe by protease panel [3]: Probe #762 is selective for DPP2
